For this experiment, the target named is β2-AR of the β2-AR-Sp SPASM sensor (human) (UniProt P07550).

Turning to Sp (Gαs C terminus peptide), the critical concentration (CC) of unlabeled peptide for enhanced isoproterenol-stimulated ΔFRET of the β2-AR-Sp sensor in native membranes (peptide 100 nM to 100 μM) worked out at 1.5 µM.

(Values after publication PMC6811539, “Minute-scale persistence of a GPCR conformation state triggered by non-cognate G protein interactions primes signaling” (Nature Communications, 2019).)
